± gives the standard deviation of the averaged measurements.

This series relates to ATP. Briefly: switch fluorescence ratio, 500 uM ATP over buffer (Cy3 cluster intensity, sum of 5 cycles each) (fold (ratio)); higher = stronger signal-on switching upon ATP binding; sequences stand for … in TCGTCGGCAGCGTCAGATGTGTATAAGAGACAGTTTTTTTTTTTTTTTTTTTTTTTTT…TC. The following applies: aptamer strand: ATP DNA aptamer (quencher-CACCTGGGGGAGTATTGCGGAGGAAGG + anchor), 100 nM annealed; ATP concentration: 500 uM. In short, it runs like this:
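Imaging in selection buffer was followed by imaging after 15 min with 500 uM ATP at 22 °C, for Cy3-labelled switching-strand clusters annealed to 100 nM quencher-labelled ATP aptamer on a modified Illumina MiSeq flow-cell. Five of these buffer/ATP cycles ran, separated by NaOH stripping and re-annealing. The fluorescence ratio per cluster is summed target-cycle over summed buffer-cycle Cy3 intensity, averaged per switch-domain sequence; clusters outside 100-1000 RFU were removed.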
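Further: ATP exposure 15 min at 22 °C before imaging.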

Turning to AAATTCATTA, the switch fluorescence ratio came to 0.981 ± 0.083.
As to TGTGTGCGGT, the switch fluorescence ratio turned out to be 0.997 ± 0.054.
The figure for ACATATCTTT is 1.025 ± 0.0012; for TCCTTTGTGG it is 1.02 ± 0.021.
The figure for GGGTTATGGA is 0.971 ± 0.021; for GGGCCTATAG it is 0.9859 ± 0.0085.
The figure for GAAGGGGGTG is 1.02 ± 0.039.
In the case of CTTCCGCTTG, the switch fluorescence ratio was found to be 1.58 ± 0.021.
The figure for TGCATTTAGT is 1.006 ± 0.0086.
The figure for CTGCGTCTAA is 1.03 ± 0.027; for TACTTAGTTT it is 1.01 ± 0.077; for GGCGTAGGCC it is 1.2 ± 0.29.
Turning to TTGTTAGTTT, the switch fluorescence ratio worked out at 0.983 ± 0.032.
As for TTCCAATGAT, the switch fluorescence ratio worked out at 1.01 ± 0.044.
Consider TATGTTGGTG, for which the switch fluorescence ratio was 0.987 ± 0.018.
Next, TTAAGAAGCG: 1.01 ± 0.06; TTAAAGTGTT: 1.09 ± 0.16; TACAAAAGGT: 1.07 ± 0.094.
Next, TAAGTGACCG: 1.07 ± 0.018.
The figure for AGGGCGGGTG is 1.047 ± 0.0095; for TGGTGTGAAT it is 1.01 ± 0.036.
CGGCCATTTG: the switch fluorescence ratio is 0.993 ± 0.059.
Next, GGGGATAGAA: 0.982 ± 0.014.
Next, GCCGTTCTTA: 1.05 ± 0.037; CTTTATAATC: 0.986 ± 0.026.
For AATGAGGGGT, the switch fluorescence ratio came to 0.966 ± 0.031.
Next, TCATTAGAGG: 0.9942 ± 0.0067.
Next, TTATGACATT: 1.01 ± 0.044; AGTCGGTGCA: 0.9855 ± 0.0013; GGGCGCGAAC: 1.06 ± 0.018.
In the case of GCTCTGTTGG, the switch fluorescence ratio is 1.01 ± 0.048.
Next, GCTGGGAGGT: 0.984 ± 0.02; TTACTGGGGT: 1.02 ± 0.021; TTTAATATGC: 1.14 ± 0.23.
The figure for AGGGGGGAAT is 1.03 ± 0.048; for GGTAAATATT it is 0.9981 ± 0.0046.
For the sequence TCAGGATTGA, the switch fluorescence ratio turned out to be 0.98 ± 0.036.
As for CTAAATAATA, the switch fluorescence ratio was 0.992 ± 0.027.
As for CGATGTTTTT, the switch fluorescence ratio is 0.957 ± 0.029.
In the case of ATTGAGCCAG, the switch fluorescence ratio stood at 1.03 ± 0.023.
In the case of TATTAACTAG, the switch fluorescence ratio turned out to be 1.02 ± 0.0022.
The figure for ATTTAAGGAC is 1.04 ± 0.032; for CTTTAAGTTT it is 0.9967 ± 0.0093.
For the sequence ATAGTCCTCC, the switch fluorescence ratio amounted to 1.2 ± 0.0043.
Take TGCGTTAT: the switch fluorescence ratio is 1.07 ± 0.036.
Next, ACGGTTTTTG: 0.993 ± 0.029; TCGAAGAATG: 1.005 ± 0.002.
Consider ATATGGTATT, for which the switch fluorescence ratio was found to be 0.99 ± 0.023.
Next, TGTCCTAGCG: 0.99 ± 0.024.
Next, TCCAGGTCGG: 1.2 ± 0.025; TAGGTCATAT: 1 ± 0.022; GGGGGTGTTT: 0.998 ± 0.037.
Next, AGTATAGTGG: 1.03 ± 0.022; TTTATGAATG: 0.9853 ± 0.0042.
Turning to ATGTAAATGT, the switch fluorescence ratio is 1.041 ± 0.0077.
The figure for TGATAGAAGT is 1.01 ± 0.015; for CAGGTCTTTC it is 1.02 ± 0.021.
The figure for TTTTTGGAGG is 1 ± 0.034; for GAACATTTTT it is 1.03 ± 0.021.
The figure for GTTTTTCCTT is 0.998 ± 0.022.
Consider TAAGCAAATG, for which the switch fluorescence ratio stood at 1.038 ± 0.0072.
As for TATTAGGGAT, the switch fluorescence ratio was 0.9951 ± 0.0058.
Next, GGGGGTCATC: 0.971 ± 0.011.
The figure for CAATCGTAAA is 1.01 ± 0.02; for AGGATGGGGT it is 0.966 ± 0.017.
The figure for AGAATGTTTT is 0.989 ± 0.033; for GGGTGTTAGC it is 1.02 ± 0.046; for GAGTAGGGGA it is 0.97 ± 0.055.
On to CAGTCCGGTC, for which the switch fluorescence ratio came to 1.06 ± 0.014.
Next, AGACAGGTAA: 1.01 ± 0.02; TTTCTGGAAT: 0.991 ± 0.0019; GATGTGCTTG: 1.01 ± 0.013.
Next, GATGTGATTT: 1.08 ± 0.078; GTTTTCGGCG: 0.981 ± 0.035.
Next, GTTGATAAGA: 0.982 ± 0.035; AGTTGATTGG: 0.983 ± 0.027; GTCATCTGGG: 0.982 ± 0.017.
As to CGGAATTTC, the switch fluorescence ratio came out at 1.11 ± 0.05.
For the sequence TGTTCTAGGT, the switch fluorescence ratio came out at 1.014 ± 0.0018.

Source of the values: the supplement of paper PMC10126150.
